Experimental data taken from patent publication US7229788B1, “Protease susceptibility II” (The University of Sydney, priority 1998, dated 2007).
“Also recorded” adds a separate entry of the source.

Key:
human serum = settings: for effect of peptide on degradation of SHEL by serum (full-length SHEL, SDS-PAGE, densitometry): molar excess of peptide to SHEL (100:1), preincubated 37° C., SHEL and SHELδ26A; for effect of protease inhibitor on serum degradation of SHEL (amount of full-length SHEL): SHEL incubated with serum at 37° C., SDS-PAGE, 0.5 mM Pefabloc SC, 5 mM PMSF, 25 mM EDTA, Pefabloc PK, 1 unit Hirudin
Experimental: Human serum was obtained from fresh intravenous blood, centrifuged at 2000 g to remove red blood cells and then allowed to clot before serum was removed. Aliquots (20 μl) were stored at −20° C. and thawed when needed. 15 μg tropoelastin in 50 mM sodium phosphate buffer, pH 7.8 was incubated with 0.5 μl serum in a 20 μl reaction for between 1 and 18 hr at 37° C. […] All inhibitors were dissolved in water except PMSF which was dissolved in isopropanol. Reactions were analysed by 8% SDS-PAGE. Serum-digested peptides to be used for sequencing were purified by the addition of 1.5 volumes n-propanol, followed by 2.5 volumes n-butanol and stirred overnight. The organic solvents were removed by rotary evaporation and peptides resuspended in 50 mM sodium phosphate buffer, pH 7.8.
Various dilutions of serum from ½– 1/50 in 50 mM sodium phosphate pH7.8 were used and both SHEL and SHELδ26A were used for each experiment.
Experiments were conducted in parallel with S-GAL using identical procedures (see above). Both SHEL and SHELδ26A were used. Each reaction was analysed by 10% SDS-PAGE. Gels were scanned by densitometry and the volume of full-length SHEL calculated as follows. Scanning densitometry of stained gels was performed using the Molecular Dynamics Personal Densitometer. Images were analysed and quantitated using ImageQuant software (Version 3.2, Molecular Dynamics USA).
10 mg/ml SHEL in 50 mM sodium phosphate pH7.8 and 150 mM NaCl was allowed to coacervate at 37° C. until cloudy before adding human plasma kallikrein (6×10^−4U), thrombin (1U), plasmin (1.5×10^−5U), trypsin (2×10^−3U), HLE (1.6×10^−3U) and serum (0.75 μl) for one hour. Control reactions were performed at 16° C. for three hours. Extent of proteolysis was monitored by SDS-PAGE.

[1] = target: T1, human leukocyte elastase (HLE) (Homo sapiens, UniProt P08246); assay: HLE digestion of SHEL, SDS-PAGE; type: biochemical; settings: molar excess of peptide to SHEL (100:1); SHEL and SHELδ26A
T1 construct: purchased Sigma
T1 sequence (P08246 30-267): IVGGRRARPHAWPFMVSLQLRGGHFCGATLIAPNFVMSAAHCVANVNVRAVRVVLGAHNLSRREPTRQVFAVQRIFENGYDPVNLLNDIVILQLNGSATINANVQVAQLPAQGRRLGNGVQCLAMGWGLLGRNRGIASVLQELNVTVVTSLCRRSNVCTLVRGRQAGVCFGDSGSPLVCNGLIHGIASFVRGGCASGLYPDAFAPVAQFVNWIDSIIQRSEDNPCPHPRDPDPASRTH
Experimental: (§1) A range of enzyme concentrations was originally used to determine the optimal amount for subsequent experiments. Thrombin (0.01–1U), human plasma kallikrein (3×10^−4 to 3×10^−3U), human plasmin (7×10^−5 to 4×10^−7U), bovine trypsin (5×10^−4 to 4×10^−3U), and human leukocyte elastase (1.6×10^−4 to 3.2×10^−3U) were added to 10 μg SHEL or SHELδ26A in 50 mM sodium phosphate buffer pH 7.8 in a total volume of 20 μl. All reactions were performed at 37° C. for one hour. Gelatinase A and B were activated using 0.8 mM APMA at 37° C. for 30 minutes (gelatinase A) or 37° C. for 45 minutes (gelatinase B). Gelatinase A (4×10^−3−4×10^−2) and gelatinase B (2×10^−5−1×10^−4) was added to […] SHEL or SHELd26A in a total volume of […]. Gelatinase B reactions were performed in the presence of 0.75 mM APMA. The degradation profile was analysed by 8, 10 or 12% SDS-PAGE.
(§2) Both SHEL and SHELδ26A were used. Each reaction was analysed by 10% SDS-PAGE.
(§3) Extent of proteolysis was monitored by SDS-PAGE.

human plasmin = target: T2, human plasmin (Homo sapiens, UniProt P00747); assay: Plasmin digestion of SHEL, SDS-PAGE; type: biochemical; settings: molar excess of peptide to SHEL (100:1); SHEL and SHELδ26A
T2 construct: purchased Sigma
Experimental: as §1, §2, §3

human plasma kallikrein = target: T3, human plasma kallikrein (Homo sapiens, UniProt P03952); assay: Kallikrein digestion of SHEL, SDS-PAGE; type: biochemical; settings: molar excess of peptide to SHEL (100:1); SHEL and SHELδ26A
T3 construct: purchased Sigma
Experimental: as §1, §2, §3

bovine trypsin = target: T4, bovine trypsin (Bos taurus, UniProt P00760); assay: Trypsin digestion of SHEL, SDS-PAGE; type: biochemical; settings: molar excess of peptide to SHEL (100:1); SHEL and SHELδ26A
T4 construct: purchased Boehringer-Mannheim
T4 sequence (P00760 24-246): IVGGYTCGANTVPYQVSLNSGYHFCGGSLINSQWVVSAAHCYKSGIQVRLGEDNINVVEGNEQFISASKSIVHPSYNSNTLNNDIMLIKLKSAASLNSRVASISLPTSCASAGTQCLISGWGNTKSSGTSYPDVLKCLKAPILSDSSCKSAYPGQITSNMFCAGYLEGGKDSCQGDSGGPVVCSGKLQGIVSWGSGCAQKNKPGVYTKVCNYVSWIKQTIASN
Experimental: as §1, §2, §3

human thrombin = target: T5, human thrombin (Homo sapiens, UniProt P00734); assay: Thrombin digestion of SHEL, SDS-PAGE; type: biochemical; settings: for effect of peptide on degradation of SHEL by thrombin (full-length SHEL, SDS-PAGE, densitometry): molar excess of peptide to SHEL (100:1), SHEL and SHELδ26A
T5 construct: purchased Sigma
Experimental: as §1, §2, §3
Cleavage of GST-SHEL bound to glutathione agarose was performed by washing and resuspending beads in 1× thrombin cleavage buffer (50 mM Tris-HCl pH8.0, 150 mM NaCl, 2.5 mM CaCl2) and adding human thrombin (Sigma) from 0.1 to 1% (w/v) thrombin:fusion protein at 25° C. for one hour (Smith and Johnston 1988). Soluble bacterial lysates used as substrate were incubated similarly with 1× thrombin cleavage buffer, added from a 10× stock. GST (26 kDa) was evident on beads by SDS-PAGE but SHEL could not be identified in the supernatant in numerous experiments. To determine whether thrombin was degrading SHEL, the entire cell lysate was subject to cleavage with increasing concentrations of thrombin. […] GST was clearly present. However, with 0.01U thrombin a band at approximately 64 kDa could be discerned which may represent SHEL although this was not nearly as intense as the GST band.

kallikrein = target: T6, kallikrein (Homo sapiens, UniProt P03952); type: biochemical
T6 construct: from tissue; host or cells: human serum

gelatinase A = gelatinase A (Homo sapiens, UniProt P08253)
Chain of gelatinase A (P08253 110-660): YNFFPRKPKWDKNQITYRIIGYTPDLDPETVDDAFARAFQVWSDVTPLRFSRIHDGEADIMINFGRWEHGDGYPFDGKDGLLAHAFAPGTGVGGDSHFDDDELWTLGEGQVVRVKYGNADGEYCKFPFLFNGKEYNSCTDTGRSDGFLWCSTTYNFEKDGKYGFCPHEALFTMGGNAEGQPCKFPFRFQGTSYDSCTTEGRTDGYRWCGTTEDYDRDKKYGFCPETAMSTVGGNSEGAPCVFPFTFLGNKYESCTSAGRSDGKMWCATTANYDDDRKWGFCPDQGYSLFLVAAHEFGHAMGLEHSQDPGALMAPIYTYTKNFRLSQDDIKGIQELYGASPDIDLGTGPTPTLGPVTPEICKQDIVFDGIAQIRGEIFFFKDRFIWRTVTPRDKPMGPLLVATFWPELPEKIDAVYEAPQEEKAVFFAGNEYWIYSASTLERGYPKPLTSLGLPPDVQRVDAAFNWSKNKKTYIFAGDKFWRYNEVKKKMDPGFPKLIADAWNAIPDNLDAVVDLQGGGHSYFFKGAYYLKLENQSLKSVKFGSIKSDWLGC

T3 sequence (P03952 20-638): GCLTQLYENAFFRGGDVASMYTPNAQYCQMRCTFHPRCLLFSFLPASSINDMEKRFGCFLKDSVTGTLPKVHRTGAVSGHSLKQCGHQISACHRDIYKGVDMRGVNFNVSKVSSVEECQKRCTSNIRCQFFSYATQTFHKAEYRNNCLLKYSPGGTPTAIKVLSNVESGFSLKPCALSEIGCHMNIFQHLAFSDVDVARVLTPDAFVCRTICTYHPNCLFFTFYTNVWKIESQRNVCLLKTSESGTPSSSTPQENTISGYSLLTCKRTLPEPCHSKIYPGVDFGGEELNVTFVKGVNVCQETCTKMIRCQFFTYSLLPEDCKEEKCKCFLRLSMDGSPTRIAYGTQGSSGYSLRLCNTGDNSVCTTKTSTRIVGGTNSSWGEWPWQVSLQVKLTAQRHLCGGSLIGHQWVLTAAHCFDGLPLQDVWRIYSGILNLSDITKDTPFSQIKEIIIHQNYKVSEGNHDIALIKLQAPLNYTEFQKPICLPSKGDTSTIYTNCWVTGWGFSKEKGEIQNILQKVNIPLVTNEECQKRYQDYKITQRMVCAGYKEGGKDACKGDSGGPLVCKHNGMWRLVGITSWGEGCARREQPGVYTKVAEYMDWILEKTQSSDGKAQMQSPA
T2 sequence (P00747 97-810): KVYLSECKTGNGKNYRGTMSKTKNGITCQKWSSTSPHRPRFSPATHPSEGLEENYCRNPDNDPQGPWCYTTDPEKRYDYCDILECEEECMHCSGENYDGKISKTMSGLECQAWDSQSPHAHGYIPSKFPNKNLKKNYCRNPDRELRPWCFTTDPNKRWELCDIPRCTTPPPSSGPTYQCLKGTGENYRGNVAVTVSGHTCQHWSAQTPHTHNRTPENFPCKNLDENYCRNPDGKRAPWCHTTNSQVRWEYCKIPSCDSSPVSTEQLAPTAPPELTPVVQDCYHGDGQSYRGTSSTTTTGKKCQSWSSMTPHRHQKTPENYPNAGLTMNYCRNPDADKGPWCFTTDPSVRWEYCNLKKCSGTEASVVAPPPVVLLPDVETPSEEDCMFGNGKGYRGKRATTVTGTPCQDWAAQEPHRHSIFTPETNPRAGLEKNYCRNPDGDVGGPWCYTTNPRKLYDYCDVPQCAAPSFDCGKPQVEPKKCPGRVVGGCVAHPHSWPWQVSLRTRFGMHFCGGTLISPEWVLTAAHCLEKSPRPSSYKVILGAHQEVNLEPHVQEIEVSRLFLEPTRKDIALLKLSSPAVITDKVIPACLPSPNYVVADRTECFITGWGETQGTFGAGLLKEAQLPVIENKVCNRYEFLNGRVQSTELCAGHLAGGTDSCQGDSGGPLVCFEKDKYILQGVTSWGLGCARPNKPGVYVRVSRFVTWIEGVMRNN
T6 sequence (P03952 20-638): as the sequence (P03952 20-638) above

| Compound | effect of peptide on degradation of SHEL by serum (full-length SHEL, SDS-PAGE, densitometry) (human serum) | effect of peptide on degradation of SHEL by HLE (full-length SHEL, SDS-PAGE, densitometry) [1] | effect of peptide on degradation of SHEL by plasmin (full-length SHEL, SDS-PAGE, densitometry) (human plasmin) | effect of peptide on degradation of SHEL by kallikrein (full-length SHEL, SDS-PAGE, densitometry) (human plasma kallikrein) | effect of peptide on degradation of SHEL by trypsin (full-length SHEL, SDS-PAGE, densitometry) (bovine trypsin) | effect of peptide on degradation of SHEL by thrombin (full-length SHEL, SDS-PAGE, densitometry) (human thrombin) | effect of protease inhibitor on serum degradation of SHEL (amount of full-length SHEL) (human serum) | further results |
| --- | --- | --- | --- | --- | --- | --- | --- | --- |
| N-VVGSPSAQDEASPLS-C (listed as Homo sapiens) [S-GAL, reference compound] | did not show any significant or consistent inhibition | consistently inhibited; also recorded: significant and reproducible inhibition was seen | did not show any significant or consistent inhibition | did not show any significant or consistent inhibition | did not show any significant or consistent inhibition | some inhibition could be seen |  |  |
| Hirudin [reference compound] |  |  |  |  |  |  | did not appear to significantly inhibit degradation | inhibition of thrombin degradation of SHEL by inhibitor (human thrombin; not shown): degradation was inhibited |
| N-AAKAQLRAAAGLGA-C (KAQLRAAAGLGAGI; listed as Homo sapiens) [SPS-peptide] | more full-length SHEL was evident compared with controls | more full-length SHEL using thrombin and HLE but to a lesser extent | more full-length SHEL was evident compared with controls | more full-length SHEL was evident compared with controls | more full-length SHEL was evident compared with controls | more full-length SHEL using thrombin and HLE but to a lesser extent |  |  |
| Cl.NCCc1ccc(S(=O)(=O)F)cc1 [Pefabloc SC] |  |  |  |  |  |  | protected tropoelastin from cleavage |  |
| O=S(=O)(F)Cc1ccccc1 [PMSF] |  |  |  |  |  |  | protected tropoelastin from cleavage | effect of inhibitor on second cleared zone in SHEL zymogram digested with serum (kallikrein): second cleared zone was not seen |
| O=C(O)CN(CCN(CC(=O)O)CC(=O)O)CC(=O)O [EDTA] |  |  |  |  |  |  | appeared to promote digestion | effect on 64 kDa zone in gelatin zymogram digested with serum (gelatinase A): 64 kDa zone was not observed |
